T1: recombinant human IL-12 (hrIL-12), produced at Centocor (human, UniProt P29459 23-219; P29460 23-328)
T1 construct: also called IL-12 CNTO
T1 sequence (looked up) 1: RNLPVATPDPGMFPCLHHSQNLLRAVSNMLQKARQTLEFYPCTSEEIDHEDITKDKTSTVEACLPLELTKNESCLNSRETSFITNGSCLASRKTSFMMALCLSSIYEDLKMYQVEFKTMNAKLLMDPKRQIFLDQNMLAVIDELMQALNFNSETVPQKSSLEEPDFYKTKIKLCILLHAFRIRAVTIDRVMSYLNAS
T1 sequence (looked up) 2: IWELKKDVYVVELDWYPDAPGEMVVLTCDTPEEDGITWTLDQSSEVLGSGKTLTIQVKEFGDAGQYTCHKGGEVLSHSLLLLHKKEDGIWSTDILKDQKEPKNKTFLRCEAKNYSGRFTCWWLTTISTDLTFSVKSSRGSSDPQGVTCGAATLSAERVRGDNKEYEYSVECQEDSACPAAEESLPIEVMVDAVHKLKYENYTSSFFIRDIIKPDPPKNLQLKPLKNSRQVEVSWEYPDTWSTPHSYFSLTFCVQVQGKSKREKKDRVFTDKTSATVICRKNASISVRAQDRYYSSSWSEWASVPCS

T2: p40 subunit of hrIL-12 (hrp40 monomer) (human, UniProt P29460 23-328)
T2 construct: also called p40 R&D
T2 sequence (looked up): T1 sequence (looked up) 2

T3: mIL-12 (Disulfide-linked, glycosylated heterodimer; the letters do not carry this.)
T3 construct: also called murine IL-12; copies: 1 + 1
T3 alpha: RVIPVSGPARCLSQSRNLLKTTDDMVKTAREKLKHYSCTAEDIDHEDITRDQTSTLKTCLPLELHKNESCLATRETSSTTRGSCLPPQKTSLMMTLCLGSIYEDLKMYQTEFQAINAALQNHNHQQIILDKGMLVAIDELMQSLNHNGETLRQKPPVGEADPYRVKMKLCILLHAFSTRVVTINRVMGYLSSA
T3 beta: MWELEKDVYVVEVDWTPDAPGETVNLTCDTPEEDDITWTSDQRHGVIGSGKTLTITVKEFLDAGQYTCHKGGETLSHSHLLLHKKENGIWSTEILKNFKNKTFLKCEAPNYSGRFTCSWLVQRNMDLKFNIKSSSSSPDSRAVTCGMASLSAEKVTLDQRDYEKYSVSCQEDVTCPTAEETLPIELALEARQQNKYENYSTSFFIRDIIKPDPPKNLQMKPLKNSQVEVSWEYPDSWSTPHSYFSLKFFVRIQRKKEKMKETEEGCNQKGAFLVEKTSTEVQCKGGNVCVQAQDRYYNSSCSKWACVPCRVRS

T4: murine IL-23 (murine, UniProt Q9EQ14 22-196; P43432 23-335)
T4 sequence (looked up) 1: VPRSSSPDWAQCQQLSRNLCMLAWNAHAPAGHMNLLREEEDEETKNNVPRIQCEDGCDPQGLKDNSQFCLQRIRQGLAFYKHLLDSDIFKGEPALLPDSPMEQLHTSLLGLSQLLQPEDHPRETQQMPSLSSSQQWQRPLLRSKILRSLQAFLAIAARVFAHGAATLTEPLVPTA
T4 sequence (looked up) 2: T3 beta

T5: murine p40 (murine, UniProt P43432 23-335)
T5 sequence (looked up): T3 beta

B1: MOR05042 Fab (Fab, V domains shown)
VH: QVQLVQSGAEVKKPGESLKISCKGSGYSFSNYWIGWVRQMPGKGLEWMGIISPTGSSTWYSPSFQGQVTISADKSISTAYLQWSSLKASDTAMYYCARWYYKPFDVWGQGTLVTVSS
VL: DIVLTQPPSVSGAPGQRVTISCTGSSSNIGSGYDVHWYQQLPGTAPKLLIYGNSKRPSGVPDRFSGSKSGTSASLAITGLQSEDEADYYCSSWTPSSVVFGGGTKLTVL
notes: Fab
B2: MOR05045 Fab (Fab, V domains shown)
VH: B1 VH with S57A
VL: B1 VL
notes: Fab
B3: MOR05038 Fab (Fab, V domains shown)
VH: QVQLVQSGAEVKKPGSSVKVSCKASGGTFSSNYISWVRQAPGQGLEWMGINAHLGGTWYAQKFQGRVTITADESTSTAYMELSSLRSEDTAVYYCARSKKGMYGGWTYPLMMFDLWGQGTLVTVSS
VL: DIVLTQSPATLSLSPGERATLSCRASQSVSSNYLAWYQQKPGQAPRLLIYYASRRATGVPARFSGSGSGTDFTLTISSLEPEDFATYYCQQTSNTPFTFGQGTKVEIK
notes: Fab
B4: MOR05049 Fab (Fab, V domains shown)
VH: QVQLVESGGGLVQPGGSLRLSCAASGFTFSSFGMSWVRQAPGKGLEWVSGIEHKYLSYTTHYAASVKGRFTISRDNSKNTLYLQMNSLRAEDTAVYYCARYWGTPYLMQFDNWGQGTLVTVSS
VL: DIALTQPASVSGSPGQSITISCTGTSSDVGGYNSVSWYQQHPGKAPKLMIYSVSSRPSGVSNRFSGSKSGNTASLTISGLQAEDEADYYCSSYDTNKPLVVFGGGTKLTVL
notes: Fab
B5: MOR05049 mAb (antibody, human IgG1, V domains shown)
VH: B4 VH with Q3E
VL: B4 VL
notes: human IgG1/lambda
B6: recombinant human IL-23 (hrIL-23), produced at Centocor (ligand)
chain 1: RAVPGGSSPAWTQCQQLSQKLCTLAWSAHPLVGHMDLREEGDEETTNDVPHIQCGDGCDPQGLRDNSQFCLQRIHQGLIFYEKLLGSDIFTGEPSLLPDSPVAQLHASLLGLSQLLQPEGHHWETQQIPSLSPSQPWQRLLLRFKILRSLQAFVAVAARVFAHGAATLSP
chain 2: T1 sequence (looked up) 2
notes: p19-p40 heterodimer; also called rhIL-23; huIL-23
B7: MOR04190 mAb (antibody, human IgG1, V domains shown)
VH: QVELVQSGAEVKKPGSSVKVSCKASGGTFSSNYISWVRQAPGQGLEWMGGIIPIFGHANYAQKFQGRVTITADESTSTAYMELSSLRSEDTAVYYCARSKKGMYGGWTYPLMMFDLWGQGTLVTVSS
VL: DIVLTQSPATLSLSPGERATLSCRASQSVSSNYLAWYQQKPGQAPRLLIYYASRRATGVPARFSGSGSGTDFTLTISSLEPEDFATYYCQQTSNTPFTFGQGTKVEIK
notes: human IgG1/kappa; also called 4190 (κ); MOR0190
B8: MOR04083 mAb (antibody, human IgG1, V domains shown)
VH: QVELVQSGAEVKKPGSSVKVSCKASGGTFSNYAISWVRQAPGQGLEWMGGIIPMFGYANYAQKFQGRVTITADESTSTAYMELSSLRSEDTAVYYCARDIYAGMDVWGQGTLVTVSS
VL: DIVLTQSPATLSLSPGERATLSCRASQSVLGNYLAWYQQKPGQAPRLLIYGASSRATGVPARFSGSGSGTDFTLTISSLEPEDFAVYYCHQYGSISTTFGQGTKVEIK
notes: human IgG1/kappa; also called 4083 (κ)
B9: MOR05028 Fab (Fab, V domains shown)
VH: B8 VH with E3Q, M54V, Y57F, A58T, N59H
VL: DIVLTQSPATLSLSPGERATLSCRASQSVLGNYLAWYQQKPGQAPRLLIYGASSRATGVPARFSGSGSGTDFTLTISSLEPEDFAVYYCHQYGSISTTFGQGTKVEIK
notes: Fab

For assay [1], the target named is B6. In words: SET.
Assay [2] has as its target T1, recombinant human IL-12 (hrIL-12), …. As to the kind of experiment: not told.
Assay [3] concerns the target B6. As to the kind of experiment: IL-23/IL-23R competition assay.
Assay [4] deals with B6. As to the kind of experiment: SET. The source holds these as a separate data set.
The target in assay [5] is B6. As to the kind of experiment: IL-23/IL-23R competition assay. The source holds these as a separate data set.
The target of assay [6] is B6. In words: cell-based or functional assay.
Assay [7] addresses B6. As to the kind of experiment: blocking ELISA: 20 ng/ml IL-23-bt. with titrated mAb, binding to plate-immobilized IL-23R-Fc is blocked. In general terms: ELISA stands for enzyme-linked immunosorbent assay.
The target in assay [8] is T6, IL-23R and IL-12Rβ1 naturally expressed on TALL-104 cells (human, UniProt Q5VWK5 24-629; P42701 24-662).
T6 construct: whole, on cells
As to the kind of experiment: flow cytometry on TALL-104 cells.

Assay [9] addresses B6. As to the kind of experiment: biotinylated hrIL-23 on immobilized IL-23R-Fc. As to the method:
In this experiment, a human IL-23R-Fc fusion protein was immobilized on a plate. This fusion protein consists of the extracellular domain of human IL-23 receptor fused to a human Fc segment. Biotinylated hrIL-23 was added to the plate either alone or after preincubation with individual IL-23p19 mAbs. Soluble IL-23R (IL-23R-Fc) was used as a positive control. IL-23 binding was detected with HRP-conjugated streptavidin. […] There was no inhibition by B21M, a mAb with unrelated specificity. […] IL-23 binding was inhibited by the p40 neutralizing mAb CNTO 1275 (same as mAb 12A), as expected. […] CNTO 1275 again served as a positive control.

For assay [10], the target named is T1, recombinant human IL-12 (hrIL-12), …. As to the kind of experiment: cytokine capture ELISA: mAbs coated onto plates, cytokines at 100 ng/ml, binding detected with mAb12B-biotin. The protocol:
(§1) Purified mouse anti-hIL-23 mAbs were evaluated in cytokine capture ELISA to determine their antigen subunit specificity. Briefly, IL-23 mAbs were coated onto plates and incubated with 100 ng/ml) hrIL-23, hrIL-12, and hrp40, respectively. Following incubation with biotinylated anti-p40 mAb, the binding was detected using HRP—conjugated streptavidin. An anti-p40 mAb and an anti-IL-12 mAb (20C2, Catalog No. 555065, BD Pharmingen, San Diego, Calif.) with known specificity were used as controls.

Assay [11] has as its target T2, p40 subunit of hrIL-12 (hrp40 monomer). Described as above. As to the method:
as §1

In assay [12] the target is T3, mIL-12. As to the kind of experiment: cytokine capture ELISA: mAbs coated onto plates, cytokines at 100 ng/ml; murine p40 containing cytokine detected with C17.8-biotin.
Assay [13] deals with T4, murine IL-23. Described as above.
In assay [14] the target is T5, murine p40. As to the kind of experiment: cytokine capture ELISA: mAbs coated onto plates, cytokines at 100 ng/ml; murine p40 containing cytokine detected with C17.8-biotin; target printed as m(p40)2.

Where a chain is given by its changes, count along the chain named. Where two headings read alike, the source gives them in different places.

On to B1, for which the Kd (as a rule, the concentration at which binding is half-saturated) in assay [1] came out at 4 pM. Besides, in assay [2], the binding result was “no binding”. Further, in assay [3], the IC50 – broadly, the concentration that gives 50% inhibition – was 60 pM.

B2: the Kd in [1] was 9 pM. Further, in [2], the binding result is “no binding”. The IC50 in assay [3] turned out to be 50 pM.

Take B3: the Kd in assay [1] turned out to be 38 pM. Further, the binding result in [2] is reported as “no binding”. In addition, in [3], the IC50 is 170 pM.

As to B4, the Kd in [4] came to 7 pM. In addition, in [2], the binding result is on record as “no binding”. In addition, the IC50 in assay [5] was 390 pM.

As for B5, the “IC50, inhibition of IL-17 production” value in [6] was 0.0162 µg/mL. The “IC50 (read off the curve)” value in assay [7] is around 0.1 µg/mL.

Regarding B6, the binding result in assay [8] is “binds”.

With B7, the “IC50, inhibition of IL-17 production” value in [6] came out at 0.218 µg/mL. Besides, in assay [9], the “fold weaker potency than soluble IL-23R-Fc” value was around 3 fold. Also, the binding result in assay [10], in [11], in assay [12], in [13] and in assay [14] was “no binding (tested: 100 ng/ml)” throughout.

For B8, the “IC50, inhibition of IL-17 production” value in assay [6] was found to be 1.4 µg/mL. The “fold weaker potency than soluble IL-23R-Fc” value in [9] is around 3 fold. For the same molecule, the binding result in assay [10], in assay [11], in assay [12], in [13] and in [14] was “no binding (tested: 100 ng/ml)” in each case.

Regarding B9, the Kd in assay [1] came to 133 pM. Besides, the binding result in [2] was “no binding”. Also, the IC50 in assay [3] turned out to be 430 pM.

For the origin of these results see patent US20180291096A1 (Janssen / Centocor, published 2018).
